No end group written: not given here.
Experiments:
[1] = test system: HUVEC; experiment: Adhesion of terminally-differentiated 51Cr-labeled HL-60 cells to resting HUVEC with plasma adhesive proteins; assay type: cell-based, human; settings: for adhesion of differentiated HL-60 cells to HUVEC relative to cells not equilibrated with an adhesive protein: 150 μ/ml protein, fMLP 10 μM, 30 min at 22° C.
Procedure: The effect of fibrinogen, vitronectin, and fibronectin on the interaction of terminally-differentiated HL-60 and monocytic THP-1 cells with HUVEC was determined as described in Languino, supra. Briefly, serum-free suspensions of HL-60 or THP-1 cells were labeled with ^51Cr as described in Example 81A to a final incorporation of 0.2-4 cpm/cell. After washes in PBS, pH 7.2, aliquots of the HL-60 cells were resuspended in serum-free RPMI 1640 at 1.5×10^6/ml and stimulated with 10 μM of the chemoattractant formyl-methionyl-leucyl-phenylalanine (fMLP, Sigma, St. Louis, Mo.) and equilibrated with 150 μ/ml fibrinogen, vitronectin, or fibronectin in the presence of 1 mM CaCl2 for 20 min at 22° C. Equilibrated HL-60 were added to resting HUVEC monolayers that had been previously incubated with fresh complete culture medium 12 hours prior to the experiment and incubated for an additional 30 min at 22° C., washed,solubilized in 10-20% SDS, and associated radioactivity determined in a scintillation β-counter. The number of attached cells was quantitated by diving the cpm harvested by the cpm/cell. Under these experimental conditions, there was no aggregation of the various leukocyte subpopulations in the presence of the different plasma adhesive proteins, nor disruption of the HUVEC monolayers at any time interval tested, as judged by routine microscopic examination of the adhesion field. Data are the mean ± S.D. of triplicates from a representative experiment.
Experimental conditions were the same as described in Example 9C1 except that the ^51Cr-labeled HL-60 cells were equilibrated with 40 μg/ml vitronectin or control protein transferrin and added to resting HUVEC for increasing time intervals between 10 and 60 minutes at 22° C. before measurement of leukocyte adhesion.
Experimental conditions were the same as described in Example 9C1 except that the ^51Cr-labeled HL-60 cells were equilibrated with several concentrations of vitronectin ranging from 1.84 to 150 μg/ml and prior to incubation to resting HUVEC.

[2] = test system: ICAM-1+ JY lymphocytes; experiment: Adhesion of 51Cr-labeled JY lymphocytes to peptide-coated wells; assay type: cell-based; settings: wells coated with 1-100 μg/ml peptide, 45 min at 37° C.
Procedure: Ninety-six well assay plates (Costar, Cambridge, Mass.) were coated with increasing concentrations (1-100 μg/ml) of the polypeptides γ3 and L10 in PBS, pH 7.2, for 18 h at 4° C. Wells were washed in PBS, pH 7.2 and blocked with 3% gelatin for 60 min at 37° C.
Serum-free suspensions of JY lymphocytes were labeled with 0.5 mCi ^51Cr (Na2CrO4, specific activity 487.4 mCi/mg, E. I., DuPont de Nemours, Wilmington, Del.) for 2 h at 37° C., with a final incorporation of 0.2-4 cpm/cell (Languino, et al., supra). Aliquots of ^51Cr-labeled JY lymphocytes at 1×10^6/ml were added to peptide-coated wells for 45 min at 37° C., washed, solubilized in 20% SDS, and radioactivity associated under the various conditions was determined in a scintillation beta-counter. The number of attached cells was quantitated by dividing the cpm harvested by the cpm/cell. Data are the mean ± S.D. of two independent experiments.

[3] = molecular target: T1, ICAM-1 receptor on JY lymphocytes (Homo sapiens, UniProt P05362); experiment: Inhibition of JY lymphocyte adhesion to γ3-coated plates by monoclonal antibodies; assay type: cell-based; settings: plates coated with 20 μ/ml peptide, no antibody
T1 construct: endogenous in cells; host or cells: JY lymphocytes (51Cr-labelled)
Procedure: Binding inhibition assays were performed using radiolabeled ICAM-1^+ JY lymphocytes and the γ3 polypeptide. […] The peptides used in this assay were the γ3 and irrelevant polypeptide L10 prepared as described in Example 7A.
Ninety-six well assay plates were coated with 20 μ/ml of the polypeptides γ3 and L10 and the ^51Cr-labeled JY lymphocytes were prepared as described above. The ^51Cr-labeled JY lymphocytes were preincubated with saturating concentrations (25 μg/ml) of monoclonal antibodies anti-ICAM-1 1G12, 2D5, or 6E6; or anti-EPR-1 6A11 before incubation in the […] plates. Binding of radiolabelled JY lymphocytes was measured after a 45 min maintenance period in the presence of the monoclonal antibodies in the γ3 peptide-coated plate. Background binding was assessed by the incubation of ^51Cr-labeled JY lymphocytes which had not been preincubated with a monoclonal antibody in the L10 peptide-coated plate. Data are the mean ± S.D. of replicates of two independent experiments.

[4] = molecular target: ICAM-1 (Homo sapiens, UniProt P05362); experiment: 125I-labeled γ3 binding to ICAM-1 CHO transfectants
Procedure: A variant polypeptide γ3 (KYG-γ3) duplicating the fibrinogen γ chain sequence 117-133 N^117NQKIVNLKEKVAQLEA^133 (SEQ ID NO 2) was synthesized with the addition of Lys-Tyr-Gly residues at the amino terminus to facilitate radiolabeling of the polypeptide (KYGN^117NQKIVNLKEKVAQLEA^133, SEQ ID NO 4). The variant γ3 and L10 polypeptides were synthesized as described in Example 7A. Typically, 2 mg of KYG-γ3 were iodinated with 5 mCi ^125I-Na (Amersham, Arlington Heights, Ill.) by the IODO-GEN method (Fraker et al., Biochem Biophys Res Commun., 80:849-857, (1978)) for 45 min at 4° C. Free radioactivity was separated from polypeptide-bound radioactivity by gel-filtration over a Bio-Gel P-2 column (Bio-Rad, Richmond, Va.) which had been preequilibrated with PBS, pH 7.2, containing 0.01% BSA, with a flow rate of 0.2 ml/sec.
Confluent monolayers of ICAM-1 CHO transfectants or wild type (WT) CHO cells were incubated in serum-free RPMI 1640 medium with increasing concentrations of ^125I-labeled γ3 peptide (10-150 μg/ml) in the presence of 1 mM CaCl2 and 1 mM MgCl2 for 45 min at 22° C. Cells were washed with three rapid changes of serum-free RPMI 1640, solubilized in 10% SDS, and radioactivity associated under the various conditions tested was quantitated in a beta-counter. […]

[5] = test system: WT CHO cells; experiment: 125I-labeled γ3 binding to wild type CHO cells; parameters: species or system Chinese Hamster; settings: 50 μg/ml
Procedure: Confluent monolayers of ICAM-1 CHO transfectants or wild type (WT) CHO cells were incubated in serum-free RPMI 1640 medium with increasing concentrations of ^125I-labeled γ3 peptide (10-150 μg/ml) in the presence of 1 mM CaCl2 and 1 mM MgCl2 for 45 min at 22° C. Cells were washed with three rapid changes of serum-free RPMI 1640, solubilized in 10% SDS, and radioactivity associated under the various conditions tested was quantitated in a beta-counter. Non specific binding was assessed in the presence of a 100-fold molar excess unlabeled γ3 peptide, or control peptide L10 added at the start of incubation, and was subtracted from the total as described above.

[6] = test system: HUVEC; experiment: Iodinated D30 binding to HUVEC monolayers and its competition; parameters: species or system human; settings: 50 fold molar excess of cold fibrinogen; myoglobin as nonspecific protein
Procedure: Binding assays described above in Example 3A2) were also performed with the fibrinogen homolog, D30, to determine if that region of fibrinogen also immunoreacted with HUVEC. Since D30 was known to bind to leukocytes via the Mac-1 receptor as described by Altieri et al., J. Biol. Chem., 265:12119-12122 (1990), these experiments were performed to determine if regions of fibrinogen mediating the binding of leukocytes to HUVEC are contained within the D30 fragment. For this analysis, the D30 fragment of fibrinogen prepared in Example 1B was labelled with ^125I as described for labelling of fibrinogen above. Iodinated D30 was admixed to HUVEC monolayers at a concentration of 10 μg/ml to form a binding complex. After washing the cells to remove the unbound D30 as described in Example 3A2) above, the cells were solubilized and the amount of bound radioactivity was determined. The binding of D30 to HUVEC was maximal at 120 minutes of the maintenance period with approximately 60,000 cpm.

[7] = test system: HUVEC; experiment: Inhibition of 125I-labelled fibrinogen binding to HUVEC by cold fibrinogen, anti-VNR antibodies and RGD/RGE peptides; parameters: species or system human; settings: anti-VNR antibody 25 μg/ml, 20 minutes at 37° C. preincubation
Procedure: Binding of ^125I-labelled fibrinogen binding to HUVEC assays were performed in the presence of 50 molar excess of unlabelled fibrinogen in order to confirm the specificity of binding as shown in Example 3A. The binding assay was performed as described in Example 3A with the exception that unlabelled fibrinogen was admixed to HUVEC at a 50 molar excess (approximately […] fibrinogen) concurrently with 50 μg/ml of ^125I-labelled fibrinogen. The protein-cell admixtures were maintained at 22° C. for 30 minutes to allow for binding of fibrinogen to HUVEC. In addition to cold fibrinogen, a 50 fold molar excess of BSA was separately admixed as a control. The amount of fibrinogen bound under the above conditions was quantitated as described in Example 3A. The uninhibited total binding of ^125I-labelled fibrinogen saturated after 30 minutes at approximately 4000 cpm per well. […] The binding of fibrinogen to the HUVEC surface fibrinogen receptor is therefore specific.
The specificity of binding to an RGD-independent fibrinogen receptor was confirmed in competition assays performed as described above in the presence of monoclonal antibodies against the beta subunit of the RGD-dependent VNR and in the presence of RGD-containing peptides. For the assays in which the ability of anti-VNR monoclonal antibodies, designated mAb 609 and mAb 7E3, to inhibit the binding of ^125I-labelled fibrinogen to HUVEC, the antibodies were separately maintained at a concentration of 25 μg/ml with HUVEC for 20 minutes at 37° C. After the maintenance period, the antibody-treated HUVEC were washed once with serum-free RPMI 1640 to remove any unbound antibody. Labelled fibrinogen was then admixed to the treated HUVEC at a concentration of 50 μg/ml in the presence of 2.5 mM CaCl2 and […] PPack. The resultant admixtures were maintained for 10-30 minutes at 22° C. The fibrinogen-treated HUVEC were then washed, solubilized and counted as described in Example 3A.
To confirm that the fibrinogen binding site on HUVEC was not RGD dependent, inhibition assays performed as described above for inhibiting with antibodies except that they were done in the presence of 1.0 mM of an RGD-containing peptide. A control RGE-containing peptide was also included in the assay. At selected time points over the time course of one hour, the HUVEC were harvested as described in Example 3A.

Chain of ICAM-1 (P05362 28-532): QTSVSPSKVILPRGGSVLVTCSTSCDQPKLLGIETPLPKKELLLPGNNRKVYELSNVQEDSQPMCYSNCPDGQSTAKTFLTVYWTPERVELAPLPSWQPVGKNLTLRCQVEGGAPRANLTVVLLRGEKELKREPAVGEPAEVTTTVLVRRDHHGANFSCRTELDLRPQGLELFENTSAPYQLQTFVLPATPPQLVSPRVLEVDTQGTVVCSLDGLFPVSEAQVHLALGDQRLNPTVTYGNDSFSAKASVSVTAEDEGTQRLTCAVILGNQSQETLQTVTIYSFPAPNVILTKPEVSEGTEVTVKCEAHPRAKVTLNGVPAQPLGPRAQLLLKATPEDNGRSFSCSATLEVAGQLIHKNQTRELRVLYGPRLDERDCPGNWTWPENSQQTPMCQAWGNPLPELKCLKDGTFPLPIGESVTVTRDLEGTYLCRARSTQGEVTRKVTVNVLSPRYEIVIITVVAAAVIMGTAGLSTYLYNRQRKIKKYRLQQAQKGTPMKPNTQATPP
T1 sequence (P05362 28-532): as above

## fibronectin
[1]
  adhesion of differentiated HL-60 cells to HUVEC relative to cells not equilibrated with an adhesive protein: did not result in an increase in adhesion

## LGGAKQAGDV (OTHER INFORMATION: synthesized) [L10, reference compound]
[2]
  adhesion of JY lymphocytes to immobilized peptide: did not support lymphocyte adhesion at any concentration tested
[3]
  JY lymphocyte adhesion to L10-coated plate (background): did not support significant JY lymphocyte adhesion

## NNQKIVNLKEKVAQLEA (OTHER INFORMATION: synthesized) [γ3]
[2]
  adhesion of JY lymphocytes to immobilized peptide: strongly adhered
[4]; 100-fold molar excess unlabeled peptide
  competition of 125I-labeled γ3 polypeptide binding: competitively inhibited

## KYGN^117NQKIVNLKEKVAQLEA^133 (KYGNNQKIVNLKEKVAQLEA; also: 125I radiolabel) [KYG-γ3]
[5]
  binding of 125I-labeled γ3 polypeptide to WT CHO cells: did not bind
[4]; 10-150 μg/ml, 1 mM CaCl2 and 1 mM MgCl2, 45 min at 22° C.
  binding of 125I-labeled γ3 polypeptide to ICAM-1 CHO transfectants: bound to ICAM-1 CHO transfectants in a specific and dose-dependent fashion

B1: Myoglobin: a nonspecific protein (protein, UniProt P68082 2-154, looked up)
Myoglobin: GLSDGEWQQVLNVWGKVEADIAGHGQEVLIRLFTGHPETLEKFDKFKHLKTEAEMKASEDLKKHGTVVLTALGGILKKKGHHEAELKPLAQSHATKHKIPIKYLEFISDAIIHVLHSKHPGDFGADAQGAMTKALELFRNDIAAKYKELGFQG
[6]
  competition of D30 binding to HUVEC: did not inhibit

B2: mAb 609: anti-VNR monoclonal antibody (antibody, V domains shown)
VH: EVQLEESGGGLVKPGGSLKLSCAASGFAFSSYDMSWVRQIPEKRLEWVAKVSSGGGSTYYLDTVQGRFTISRDNAKNTLYLQMSSLNSEDTAMYYCARHNYGSFAYWGQGTLVTVSA
VL: ELVMTQTPATLSVTPGDSVSLSCRASQSISNHLHWYQQKSHESPRLLIKYASQSISGIPSRFSGSGSGTDFTLSINSVETEDFGMYFCQQSNSWPHTFGGGTKLEIKRA
[7]
  inhibition of 125I-labelled fibrinogen binding to HUVEC (FIG. 7): no inhibitory effect

B3: vitronectin: human vitronectin purchased from GIBCO or donated (protein, UniProt P04004 20-478, looked up)
Vitronectin: DQESCKGRCTEGFNVDKKCQCDELCSYYQSCCTDYTAECKPQVTRGDVFTMPEDEYTVYDDGEEKNNATVHEQVGGPSLTSDLQAQSKGNPEQTPVLKPEEEAPAPEVGASKPEGIDSRPETLHPGRPQPPAEEELCSGKPFDAFTDLKNGSLFAFRGQYCYELDEKAVRPGYPKLIRDVWGIEGPIDAAFTRINCQGKTYLFKGSQYWRFEDGVLDPDYPRNISDGFDGIPDNVDAALALPAHSYSGRERVYFFKGKQYWEYQFQHQPSQEECEGSSLSAVFEHFAMMQRDSWEDIFELLFWGRTSAGTRQPQFISRDWHGVPGQVDAAMAGRIYISGMAPRPSLAKKQRFRHRNRKGYRSQRGHSRGRNQNSRRPSRATWLSLFSSEESNLGANNYDDYRMDWLVPATCEPIQSVFFFSGDKYYRVNLRTRRVDTVDPPYPRSIAQYWLGCPAPGHL
[1]; 10 to 60 minutes, 1.84 to 150 μg/ml
  time and dose dependency of vitronectin-mediated increase in HL-60 adhesion: time-and dose-dependent manner
[1]
  adhesion of differentiated HL-60 cells to HUVEC relative to cells not equilibrated with an adhesive protein: three to four-fold
[1]; vitronectin 1.84 to 150 μg/ml
  vitronectin concentration at which increase in HL-60 adhesion was saturated: 50 µg/mL
